Source: the supplement of paper PMC10724198
± gives the standard deviation of the averaged measurements.

System: Saccharomyces cerevisiae
Assay: protein stability index of tFT-peptide fusion (C-terminal peptide) (PSI (0-1 scale)); higher = more stable (slower turnover)
Settings: genetic background: wild type; temperature: 30 C
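Further: PSI is a weighted mean of sequencing reads over stability bins, variants kept only with over 10 reads, mCherry proximal and sfGFP distal, peptide attached via GGGS linker.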

| Sequence | protein stability index |
| --- | --- |
| VRRQADRAGRIS | 0.696 ± 0.073 |
| GGPPSPPFFDAV | 0.741 ± 0.081 |
| VLLGSEGGVQSR | 0.646 ± 0.011 |
| WVRVSVPAVGRI | 0.7035 ± 0.0067 |
| TMLLPPPNLATI | 0.71 ± 0.026 |
| IRLSCGRVGGVV | 0.648 ± 0.012 |
| PLSPRSASTFSP | 0.67 ± 0.0013 |
| PLSPRPLPPPPP | 0.713 ± 0.0018 |
| SVLRRKDKGKRG | 0.654 ± 0.014 |
| VSFLVPRYLFSG | 0.654 ± 0.16 |
| SMAFLNQRPGIL | 0.685 ± 0.017 |
| WCVCTFGGCDFP | 0.641 ± 0.012 |
| SAKARTNHAFQF | 0.678 ± 0.0097 |
| LASCVTRTMAWD | 0.664 ± 0.071 |
| GGGGGEWCLVRL | 0.688 ± 0.027 |
| AGAGGGGWWGGV | 0.76 ± 0.054 |
| TSKHLTQRKESK | 0.659 ± 0.0082 |
| WLRRFIFGSVVN | 0.657 ± 0.015 |
| NERTETVHQGTP | 0.691 ± 0.045 |
| IDPPSLCTPPPP | 0.635 ± 0.034 |
| YDLGHYFSIPRL | 0.747 ± 0.011 |
| SFLLGLCHFYGS | 0.718 ± 0.04 |
| SLLGFAGSCLLG | 0.735 ± 0.1 |
| SVRSYYVRSMLE | 0.692 ± 0.076 |
| CRGYRFLSEMKV | 0.645 ± 0.07 |
| APRKTPPHPPPS | 0.689 ± 0.06 |

| Sequence | protein stability index |
| --- | --- |
| DRHGLVGGWWAW | 0.7459 ± 0.0052 |
| SISFSLPRPLPP | 0.688 ± 0.068 |
| PPPLSPPLPFFV | 0.666 ± 0.036 |
| WSVVRGGGCGAR | 0.697 ± 0.028 |
| LPACPHPPPLPD | 0.6594 ± 0.0047 |
| HPPHPPPSPCPP | 0.733 ± 0.034 |
| RRVDVRKGRLTP | 0.753 ± 0.096 |
| GRQVTSTLTKLL | 0.617 ± 0.18 |
| KTKNEKHPKTTK | 0.766 ± 0.045 |
| IACPPSVIFSPH | 0.713 ± 0.058 |
| HTPPLPPPPDPT | 0.723 ± 0.061 |
| CQGHFAAKTEKI | 0.684 ± 0.019 |
| SSRAGVRRPHSR | 0.685 ± 0.053 |
| LDFLLSMVHGKK | 0.702 ± 0.022 |
| GLLGVRVVAGLG | 0.625 ± 0.032 |
| EALELALTWHCV | 0.7029 ± 0.0058 |
| SSPFPPLTTPSP | 0.7245 ± 0.0044 |
| TRDEGWSSAARK | 0.637 ± 0.062 |
| LWISDSGSLYFS | 0.739 ± 0.018 |
| ARPAPPLPAIPL | 0.663 ± 0.043 |
| TLSHPANNKNNL | 0.681 ± 0.047 |
| VVDPDVIGREIR | 0.706 ± 0.014 |
| GESWCGLVWPGG | 0.675 ± 0.013 |
| NELSPSQDLPSS | 0.671 ± 0.095 |
| SVIRTRYSSARM | 0.662 ± 0.057 |
| DTPLIYSLKSEC | 0.7511 ± 0.0022 |

| Sequence | protein stability index |
| --- | --- |
| RGVVGFVGVVRE | 0.6445 ± 0.0027 |
| LVLLFGIGTTHW | 0.65 ± 0.049 |
| WVSPALEALYRK | 0.764 ± 0.07 |
| ACSSSLPPSSPP | 0.671 ± 0.0078 |
| AVSLWAIFPLYT | 0.611 ± 0.015 |
| GHAPSSCPPPPR | 0.692 ± 0.062 |
| NRVPKKPAHLQQ | 0.647 ± 0.013 |
| RHGRDNPSGRLN | 0.6902 ± 0.0046 |
| GGRVLKFLLGRL | 0.668 ± 0.15 |
| VSGGGAPRSVWR | 0.706 ± 0.0083 |
| WSRRGQRGKAWR | 0.733 ± 0.12 |
| VARGCNSVYGYA | 0.653 ± 0.012 |
| PVVTGGFHIVGF | 0.793 ± 0.078 |
| SLFFSTVELFFV | 0.6707 ± 0.0053 |
| LVWFQYFRLWGG | 0.61 ± 0.029 |
| GGVVRGVWVGRG | 0.725 ± 0.028 |
| RPVPPPLPSPPP | 0.702 ± 0.016 |
| PALKQEGRPEHS | 0.6942 ± 0.0053 |
| VGGVWWGGWGHW | 0.733 ± 0.039 |
| KRKKEKNQPTKR | 0.6972 ± 0.0044 |
| RNRGPAIRVRRK | 0.635 ± 0.089 |
| YNINIKKENITE | 0.68 ± 0.025 |
| VVGQGYDSGIRY | 0.724 ± 0.024 |
| CVKKERCDSCRV | 0.715 ± 0.07 |
| FFWGVFFLGLGW | 0.566 ± 0.071 |
| YVCRCGCLVKSV | 0.656 ± 0.043 |

| Sequence | protein stability index |
| --- | --- |
| LPLWQHPTKPVH | 0.64238 ± 8.1e-05 |
| LWSDPGQILVEL | 0.717 ± 0.015 |
| GPTGPATQNDDS | 0.671 ± 0.018 |
| RNNKLGIRKSFL | 0.69 ± 0.035 |
| HLSHVLLGITFV | 0.603 ± 0.026 |
| CGSNSSLQECGV | 0.679 ± 0.11 |
| VYSPVEHLLATF | 0.59 ± 0.1 |
| RLHAILKRSGLE | 0.722 ± 0.068 |
| ELHPLPLPPPAV | 0.743 ± 0.013 |
| LRSQDFKGHLRT | 0.6606 ± 0.0029 |
| VRGLGVIGVCVL | 0.741 ± 0.019 |
| GCGSWAWWCGRG | 0.894 ± 0.08 |
| KNQTDRRKKIIN | 0.648 ± 0.039 |
| CFASLLSFCPLV | 0.695 ± 0.065 |
| WSPGGGPLGLYE | 0.743 ± 0.018 |
| GLSVSGLWGVFG | 0.629 ± 0.2 |
| TCPDSVMDRLDS | 0.696 ± 0.12 |
| GFVRYPYFAFGR | 0.687 ± 0.093 |
| QREKTRSWDIET | 0.686 ± 0.041 |
| GVGGGISGGRWG | 0.666 ± 0.088 |
| GALVEGVFGHVR | 0.658 ± 0.0066 |
| VSFRAMDRLTSR | 0.6171 ± 0.0023 |
| CNTPGLSHELLH | 0.786 ± 0.11 |
